This note sets out measurements from article PMC9881219, “The NTPase activity of the double FYVE domain–containing protein 1 regulates lipid droplet metabolism” (The Journal of Biological Chemistry, 2022).

Series [1] deals with the molecule itself. The series can be described thus: SEC; full-length FLAG-DFCP1 on Superose 6; 25 mM Tris pH 8, 150 mM NaCl, 1 mM DTT, 1 mM MgCl2; monomer and dimer peaks. A general note: Size exclusion chromatography separates by hydrodynamic size, large species first.
Series [2] concerns the molecule itself. The series can be described thus: SEC; MBP-DFCP1 (112-415) constructs on HiLoad 26/600 Superdex 200 pg; 25 mM Tris pH 8.0, 150 mM NaCl, 1 mM MgCl2, 1 mM DTT; monomer and dimer peaks.

B1: full-length FLAG-DFCP1 (human double FYVE domain-containing protein 1) (natural protein, UniProt Q9HBF4 1-777, looked up)
chain: MSAQTSPAEKGLNPGLMCQESYACSGTDEAIFECDECCSLQCLRCEEELHRQERLRNHERIRLKPGHVPYCDLCKGLSGHLPGVRQRAIVRCQTCKINLCLECQKRTHSGGNKRRHPVTVYNVSNLQESLEAEEMDEETKRKKMTEKVVSFLLVDENEEIQVTNEEDFIRKLDCKPDQHLKVVSIFGNTGDGKSHTLNHTFFYGREVFKTSPTQESCTVGVWAAYDPVHKVAVIDTEGLLGATVNLSQRTRLLLKVLAISDLVIYRTHADRLHNDLFKFLGDASEAYLKHFTKELKATTARCGLDVPLSTLGPAVIIFHETVHTQLLGSDHPSEVPEKLIQDRFRKLGRFPEAFSSIHYKGTRTYNPPTDFSGLRRALEQLLENNTTRSPRHPGVIFKALKALSDRFSGEIPDDQMAHSSFFPDEYFTCSSLCLSCGVGCKKSMNHGKEGVPHEAKSRCRYSHQYDNRVYTCKACYERGEEVSVVPKTSASTDSPWMGLAKYAWSGYVIECPNCGVVYRSRQYWFGNQDPVDTVVRTEIVHVWPGTDGFLKDNNNAAQRLLDGMNFMAQSVSELSLGPTKAVTSWLTDQIAPAYWRPNSQILSCNKCATSFKDNDTKHHCRACGEGFCDSCSSKTRPVPERGWGPAPVRVCDNCYEARNVQLAVTEAQVDDEGGTLIARKVGEAVQNTLGAVVTAIDIPLGLVKDAARPAYWVPDHEILHCHNCRKEFSIKLSKHHCRACGQGFCDECSHDRRAVPSRGWDHPVRVCFNCNKKPGDL
notes: Human DFCP1 (ZFYVE1), UniProt Q9HBF4, full length; A TEV site lies between FLAG and DFCP1; no cleavage is described for this protein; The domain diagram gives 1-777 for the full-length protein; also called FL DFCP1; FL hsDFCP1; not shown: FLAG, N-terminal, kept
For the protein B1, the binding result in series [1] is recorded as “binds”.

B2: MBP-DFCP1 (112-415), WT NTPase domain of mouse DFCP1 (domain or fragment, UniProt Q810J8 112-415, looked up)
chain: NKRRHPITVYLVSKVQESLEGEEMDEETKRKKMTERVVSFLLVDENEEIQVTNEEDFIRKLDCKPDQHLKVVSIFGNTGDGKSHTLNHTFFYGREVFKTSPAQESCTVGVWAAYDPVHKVAVIDTEGLLGATVNLSQRTRLLLKVLAISDLVIYRTHADRLHNDLFKFLGDASEAYLKHFTKELKATTARCGLDVPLSTLGPAVIIFHETVHTQLLGSDHPSEAPEKLIQDRFRKLGRFPEAFSSIHYKGTRTYNPPTDFSGLRRALEQLLENNTTRSPRHPGVIFKALKALSDRFSGEIPDDQ
notes: Mouse DFCP1, UniProt Q810J8, residues 112-415 (NTPase domain, 98.8% identical to human DFCP1), in pMal-c2e; MBP was removed with TEV protease only after the SEC step, for the nucleotide hydrolysis assays; also called WT (112-415); DFCP1 NTPase domain; source: E. coli Rosetta (DE3), purified (amylose resin, Superdex 200 SEC); not shown: MBP, N-terminal, kept
In the case of B2, the binding result in series [2] is reported as “binds”.

B3: MBP-DFCP1 (112-415) R266Q (domain or fragment, mouse, UniProt Q810J8 112-415, looked up)
chain: NKRRHPITVYLVSKVQESLEGEEMDEETKRKKMTERVVSFLLVDENEEIQVTNEEDFIRKLDCKPDQHLKVVSIFGNTGDGKSHTLNHTFFYGREVFKTSPAQESCTVGVWAAYDPVHKVAVIDTEGLLGATVNLSQRTRLLLKVLAISDLVIYQTHADRLHNDLFKFLGDASEAYLKHFTKELKATTARCGLDVPLSTLGPAVIIFHETVHTQLLGSDHPSEAPEKLIQDRFRKLGRFPEAFSSIHYKGTRTYNPPTDFSGLRRALEQLLENNTTRSPRHPGVIFKALKALSDRFSGEIPDDQ
notes: Mouse DFCP1, UniProt Q810J8, residues 112-415 (NTPase domain) with R266Q, in pMal-c2e; R266Q is a cancer-related mutation found in human patients (endometrial and colorectal cancers); Here it was introduced into the mouse NTPase domain by mutagenesis; also called RQ; RQm/RQd (monomeric/dimeric states); source: E. coli Rosetta (DE3), purified (amylose resin, Superdex 200 SEC); not shown: MBP, …
On to B3, for which the binding result in series [2] is given as “binds”.

B4: MBP-DFCP1 (112-415) K193A/R266Q (domain or fragment, mouse, UniProt Q810J8 112-415, looked up)
chain: NKRRHPITVYLVSKVQESLEGEEMDEETKRKKMTERVVSFLLVDENEEIQVTNEEDFIRKLDCKPDQHLKVVSIFGNTGDGASHTLNHTFFYGREVFKTSPAQESCTVGVWAAYDPVHKVAVIDTEGLLGATVNLSQRTRLLLKVLAISDLVIYQTHADRLHNDLFKFLGDASEAYLKHFTKELKATTARCGLDVPLSTLGPAVIIFHETVHTQLLGSDHPSEAPEKLIQDRFRKLGRFPEAFSSIHYKGTRTYNPPTDFSGLRRALEQLLENNTTRSPRHPGVIFKALKALSDRFSGEIPDDQ
notes: Mouse DFCP1, UniProt Q810J8, residues 112-415 (NTPase domain) with both K193A and R266Q, in pMal-c2e; also called KARQ; KA/RQ; source: E. coli Rosetta (DE3), purified (amylose resin, Superdex 200 SEC); not shown: MBP, N-terminal, kept
In the case of B4, the binding result in series [2] is “binds”.

B5: MBP-DFCP1 (112-415) K193A (domain or fragment, mouse, UniProt Q810J8 112-415, looked up)
chain: NKRRHPITVYLVSKVQESLEGEEMDEETKRKKMTERVVSFLLVDENEEIQVTNEEDFIRKLDCKPDQHLKVVSIFGNTGDGASHTLNHTFFYGREVFKTSPAQESCTVGVWAAYDPVHKVAVIDTEGLLGATVNLSQRTRLLLKVLAISDLVIYRTHADRLHNDLFKFLGDASEAYLKHFTKELKATTARCGLDVPLSTLGPAVIIFHETVHTQLLGSDHPSEAPEKLIQDRFRKLGRFPEAFSSIHYKGTRTYNPPTDFSGLRRALEQLLENNTTRSPRHPGVIFKALKALSDRFSGEIPDDQ
notes: Mouse DFCP1, UniProt Q810J8, residues 112-415 (NTPase domain) with K193A, in pMal-c2e; also called KA; K193A NTPase domain; source: E. coli Rosetta (DE3), purified (amylose resin, Superdex 200 SEC); not shown: MBP, N-terminal, kept
For B5, the binding result in series [2] is reported as “binds”.
